Test results taken from patent publication US20210060174.

Biological target: human fibrinogen (UniProt P02671)

| Substance | fibrin gel formation by primed hMSCs (confocal microscopy, Alexa-594-tagged fibrinogen) | fibrin formation, absorbance at 600 nm |
| --- | --- | --- |
| [cThrombin][S] | [cThrombin][S] bound to cell membranes was able to cleave fibrinogen to form a fibrin gel | – |
| cationised thrombin | – | During cationisation, the activity of thrombin was retained up to 120 minutes of cationisation, although the activity was gradually decreased with increased cationisation duration |
